Measurements taken from article PMC9616786 (Cellular and Molecular Life Sciences, 2022).
Where no end group is shown, it is not given here. The star is where a group is joined. Biotin = O=C1N[C@H]2[C@H](CS[C@H]2CCCCC(=O)*)N1

Target: T1, Calmodulin from bovine brain (bovine, UniProt P62157 1-149)
T1 construct: calmodulin, bovine, purified from brain; also called purified bovine brain CaM; CaM; source: bought: Sigma-Aldrich Cat#208694, purified from bovine brain
Experiment: SPR; Biacore 3000, 25 °C; biotinylated peptides captured on a streptavidin chip; CaM injected at 13.2 nM to 9.6 µM; HBSP (10 mM HEPES pH 7.4, 150 mM NaCl, 0.005% P20) with 1 mM CaCl2; equilibrium analysis, apparent KD
Conditions: both partners purified

- binding result: binds
B1: Peptide INF2 2-19 L14L18A, biotinylated (for surface plasmon resonance) (peptide)
peptide: K(Biotin)GGSVKEGAQRKWAAAKEKAG
notes: added N-terminal K (biotinylated) and two G residues as spacer; INF2, human, amino acids 2-19 with L14A and L18A; also called double L14L18A 2-19 peptide mutant; source: synthetic peptide (Proteomics Facility, CNB, CSIC), HPLC purified
